From the nanobody polyreactivity screen of Harvey et al. (2022)

Assay: yeast display, Sf9 membrane polyspecificity reagent, FACS + sequencing; frameworks hold sequencing errors
Summary of the method: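 Using colony PCR, genes from sorted yeast display clones were amplified, then sequenced on MiSeq at 2 × 250 and filtered by CDR length. The clones had been stained with 10% biotinylated, detergent-solubilized Sf9 membrane reagent for 1 hour at 4 °C and sorted by FACS into low and high (top ~1%) gates on anti-HA and streptavidin fluorescence. Polyreactivity labels come from the gate of origin.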

## QVQLVESGGGLVQAGGSLRLSCAASGRTFEYNAMGWYRQAPGKERELVATIRYSGTSTYADSVKGRFTISRDNAKNTVYFQMNSLKPEDTAVYYCAKQVRYYGYKYNYWGQGTQVTVSS
  polyreactivity (PSR sort gate): high polyreactivity

## QLQLVESGGGLVQAGGSLRLSCAASGRIFSRYAMGWYRQATGKERELVAAINKSGGSTYYADSVKGRFTFSRDNAKNTVYLQMNSLKPEDTAVYYCNAVYYWYKGDYWGQGTLVTVSS
  polyreactivity (PSR sort gate): high polyreactivity

## QVQLVESGGGLVQAGGSLSLICDASRFTFGFYAMGWYRQAPGKERELHAAISTTVGSTYYADSVKGRFTISRDNAKNTVYLQMNSLKPEDTAVFYCAAEYTGYINYYIYEYWRQGTQVTVSS
  polyreactivity (PSR sort gate): low polyreactivity

## QVQRVESGGGLFQAGGSLRLSCAASGSTFGYYAMGWYRQAPGKERELVPAISGSGTSTNYADSVKGRITISRDNAKNTVYLQMNSLKPEDTAVYYCATRYRYTGGGYYYRGQGTQVTVSS
  polyreactivity (PSR sort gate): low polyreactivity

## QVQLVESGGGLVQAGGSLRLSCAASGGTYHANAMGWYRQAPGKERELVAGITSGGSTYYADSVKGRFTISRDNAKNTVYLQMNSLKPEDTAVYYCNARYPLNIIRGFVWWTVGHDYWGQGTQVTVSS
  polyreactivity (PSR sort gate): low polyreactivity

## QVQLVESGGGLVQAGGSLLLSCAASGRTSAYYAMGWYRQAPGKERELDAGITRGGRTNDADSVKWRFTISRDNAKYTDYFQMNSLNPEDTAVYYCAAKYGFYWNSRTSGYWGQVTQVTVSS
  polyreactivity (PSR sort gate): high polyreactivity

## QVQLVESGGGLVQAGGSLRLSCAASGRTFGGYPMGWYRQAPGKERELVASINSGGSTYYADSVKGRFTISRDNAKNTVYLQMNSLKPEDTAVYYCAKRLGGRTLRKYGYWGQGTQVTVSS
  polyreactivity (PSR sort gate): high polyreactivity

## QVQLVESGGGLVQAGGSLRLSCAASGSTFGSYAMGWYRQAPGKERELVAAISRAGSTYADSVKGRFTISRDNAKNTVYLQMNSLKPEDTAVYYCAKRDNALYYGYDYWGQGTQVTVSS
  polyreactivity (PSR sort gate): low polyreactivity

## QVQLVESGGGLVQAGGSLRLSCAASGRIGVYAMGWYRQAPGKERELVAAIRRSGGNTYYADSVKGRFTISRDNAKNTVYLQMNSLKPEDTAVYYCAAGRPYRFYPRYDYWGQGTQVTVSS
  polyreactivity (PSR sort gate): high polyreactivity

## QVQLVESGGGLVQAGGSLRLSCAASGITFYKYAKGWYRQAPGKERELVAAISRSGTTTYYADSVKGRFTISRDNAKNTVYLQMNSLKPEDTAVYYCNTVNWLTLNDRYYYWGQGTQVTVSS
  polyreactivity (PSR sort gate): high polyreactivity

## QVQLVESGGGLVQAGGSLRLSCAASGRTFRYNTMGWYRQAPGKERELVAAITWSGGRTYYADSVKGRFTISRDNAKNTVYLQMNSLNPEDTAVYYCNADVPYSRSIYGFYYWGQGTQVTVSS
  polyreactivity (PSR sort gate): high polyreactivity

## QVQLVESGGGLVQAGGSLRLSCAASGFTFRHYAMGWYRQAPGKERELVAGITIRGTTYYADSVKGRFTISRDNAKNTVYLQMNSLKPEDTAVYYCAAAWRLGHLRFNSWGQGTQVTVSS
  polyreactivity (PSR sort gate): high polyreactivity

## QVQLVESGGGLVQAGGSLRLSCAASGRTFIGNVMGWYRQAPGKERELVAAISKSGTRTYYPDSVKGRFTISRDNAKNTVYLQMNSLKPEYTAVYYCAKDHYPRTDDFGYWGQGTQVTVSS
  polyreactivity (PSR sort gate): high polyreactivity

## QVQLVESGGGLVQAGGSLRLSCAASGNIFPRNAMGWYRQAPGKERELVAAISASGDNTYYADSVKGRFTISRDNAKNTVYLQMNSLKPEDTAVYYCAAGTFYESIQPYESVAYDYWGQGTQVTVSS
  polyreactivity (PSR sort gate): low polyreactivity

## QVQLVESGGGLVQAGGSLRLSCAASGIIFRNYAMGWYRQAPGKERELVATIRYRGGRTYADSVKGRFTISRDNAKNTVYLQMNSLKPEDTAVYYCNARRLSVYGDYDYWGQGTQVTVSS
  polyreactivity (PSR sort gate): high polyreactivity

## QVQLVESGGGLFQAGGSLRLSCAASGFTPGNVRGCYRQAPGKERELVAAISWSADSTYYADSVKGRFTISRDNAKNTVNLQMKSLKREDSAVYYCSADGVPGRAVDYEYWRQGTQVTVSS
  polyreactivity (PSR sort gate): high polyreactivity

## QVQLLESGGGLVQAGGSLRLTCAASGRTFGRYAKGWYRQAPGKERELVADITGGGSTNYADSVKGRFTISRDNAKNTVYLQMKSLKPEDTAVYYCAAGFHKRVTPEILYDYWGQGTQVTVSS
  polyreactivity (PSR sort gate): low polyreactivity

## QVQLVESGGGLVHDGRSLRLSCSASRRTYRLYAMGLYRQAPGQERELVAAITRGGRTNYADSVMGRFTISRDNAKNTVYLQMNSLKPEDTAVYYCADRYVERHTDYYYWGQGSQVTVSS
  polyreactivity (PSR sort gate): low polyreactivity

## QDQLVESGGGLVQAGGSLRLSCAASGRIFYTNAMGWYRQAPGKERQLVATISSTGSTNYADSVKGRFTISRDNAKNTVYLQMNSLKPEDTAVYYCATQVGWRTYSHRNRGYYYWGQGTQVTVSS
  polyreactivity (PSR sort gate): high polyreactivity

## QVQLVESGGGLVQEGGSLRLSCAASGSIFSGYAMGWYRQAPGKERELVAGITWSGGSTYYADSVKGRFTISRDNAKNTVYLQMNSLKPEDTSVYYCAAKYYWYYSYSGIPLFDYWGQGTQVTVSS
  polyreactivity (PSR sort gate): low polyreactivity

## QVQLVESGGGLVQAGGSLRLSCAASGRIFRYYAMVWYRQAPRKERELVAGITRGGTTNYADSVKGRFTISRDNAKNTVYLQMNSLKPEDTAVYYCAADTRRGIIGYDYWGQGTQVTVSS
  polyreactivity (PSR sort gate): high polyreactivity

## QVQLVESGGGLVQAGGRLRISCAASGFSFFSNAMGWYRQAPGKERELVAVIDRATSTYYADSVKGRFTISRDNAKNTVYLQMNSLKPEDTAVYYCNADGEEVYDFNYFLSFKGDYWGQGTQVTVSS
  polyreactivity (PSR sort gate): low polyreactivity

## QVQLVESGGGLVQAGGSLRLSCAASGLIFWLNAMGWYRQAPGKDCELVAAISRGGSTNYADSVKGRFTISRDNAKNTVYFQMNSLKPEDSAVYYCAAGSRRAAWYDYSYPYGYWGQGTQVTVSS
  polyreactivity (PSR sort gate): high polyreactivity

## QVQLVESGGGLVQAGGSLRLSCAASGIIFGTYAMGWYRQAPGKERELVASISSRGGSTYYADSVKGRFTISRDNAKNTVYLQMNSLKPEDTAVYYCAKRPSYAYSRYRKGHDYWGQGTQVSVSS
  polyreactivity (PSR sort gate): high polyreactivity

## QVQLVESGGGLVQAGGSIRLTCAASGSIFKLYAMGWYRQATGKERELVAAISWRGGSTYYADSVKGRFTISRDIAKNTVYLQMNSLKPEDTAVYYCAAEYRQYDYWGQGTQVTVSS
  polyreactivity (PSR sort gate): high polyreactivity

## QDQLVESGGGLVQAGGSLRLSCAASVSIFGVNVMGWYRQAPGKERELVAAITSIGGRTYYADSVKGRFTISRDNAKITVYLQMNSLKPEETAVYYCNADYTGAEYDYWGQGTQVTVSS
  polyreactivity (PSR sort gate): low polyreactivity

## QVQLVESGGGLVHAVGSLRLSCAASGRTFISYAMGWYRQAPGKERELVAAISKYGGRTYYADSVKGRFTISRDNAKNTVYLQKISLKPEDTAVYYCAAVKTYLDYSSTSYDYWGQGTQVTVSS
  polyreactivity (PSR sort gate): high polyreactivity

## QVQLVESGGGLVQAGGSLRLSCAASGRTLRHYTMGWYRQAPGKERELVAAITSRGSSTYYAESVKGRFTISRDNAKNTVYLQMNSLTPEDTAVYYCNATYVRLTQYFPRLYYPYYFWGQGTQVTVSS
  polyreactivity (PSR sort gate): low polyreactivity

## QVQLVESGGGLVQAGGSLRLSCAASGRIFQWNTMGWYRQAPGKEREFVAAISGSGVSTYYADSVKGRFTISRDNAKNTVYLQMNSLKPEDTAVYYCATTYPAYGRRGYDYWGQGTQVNVSS
  polyreactivity (PSR sort gate): high polyreactivity

## QVQLVESGGGLVQAGGSLRLSCAASGRIFGRNAMGWYRQAPGKEREFVARIRTSGGSTYYADSVKGRFTISRDNAKNTVYLQMISLTPEDTAVYYCAAAVYTSARGYDYWGQGTQVTVSS
  polyreactivity (PSR sort gate): high polyreactivity

## QVQLVESGGGLVQAGGSLRLSCAASGSTFVVNAMGWYRQAPGKERELVAAIAGGGSTNYADSVKGRFTISRDNAKNTVYLQMNRLKPEDTAVYYCAKDLTQSYEYDYWGQGTQVTVSS
  polyreactivity (PSR sort gate): low polyreactivity
